# Where a chain is given by its changes, count along the chain named.
# B1: C1018 (antibody, V domains shown)
# VH: QVQLVESGGGVVQPGRSLRLLCAASGFTFNTHGMHWVRQAPGKGLEWVAVIWFDGSNKYYADSVKGRFTISRDNSTNTLYLQMNSLRAEDTAVYYCARVYGGLPYYYAIDVWGQGTTVTVSS
# VL: QSVLTQPPSVSGAPGQRVTISCAGSSSNIGAGYGVHWSQQLPGRPPKLLIYGDSNRPSGVPDRFSGSNSGTSASLAITGLQAEDEAVYYCQSYDRSLRAWVFGGGTKLSVL
# B2: C904 (antibody, V domains shown)
# VH: QVQLQQWGAGLLKPSETLSLTCAVNGGSLSLYYWSWIRQSPGKGLEWIGEINHFGGSDYKPSLKSRVSISVDTSTNQFSLKLSSVTAADTAVYYCARKPLLHSNISPGAFDIWGQGTMVTVSS
# VL: EIVLTQSPGTLSLSPGERATLSCRASQSVAGSYLAWYQQKPGQAPRLLIYGASSRATGVPDRISGSGSGTDFTLTISRLEPEDFAVYYCQQYTNTPRTFGGGTKVEI
# B3: C1022 (antibody, V domains shown)
# VH: QVQLVQSGAEVKTPGASVKVSCQASGDTFTSQYLHWVRQAPGQGLEWMGIINPTAGSTTYAQKFQGRVTMTRDTSTSTVYMELRSLRSEDMAVYYCARGGFIPMVRGFIDHWGQGTLVTVSS
# VL: QSALTQPASVSGSPGQSITISCTGTSSDVGGYNYVSWYQQHPGKAPKLMIYDVSNRPSGVSTRFSGSKSGNTASLTISGLQAEDEADYYCSSPTSSNTHVFGTGTKVTVL
# B4: C1010 (antibody, V domains shown)
# VH: QVQLVESGGGVVQPGRSLRLSCAASGFTFSSYAMHWVRQAPGKGLEWVAVISYDGSNKYYADSVKGRFTISRDNSKNTLYLQMNSLRAEDTAVYYCAKKGQPYCGGDCYFYYFDYWGQGTLVTVSS
# VL: DIQMTQSPSSLSASLGDRVTITCQASQDISNYLNWYQQKPGKAPKLLIYDASNLETGVPSRFSGSGSGTDFTFTISSLQPEDIATYYCQQYDNLPPITFGQGTRLEIK
# B5: C1011 (antibody, V domains shown)
# VH: QVQLVESGGGVVQPGRSLRLSCAVSGFTFSHYAMHWVRQAPGKGLEWVAVISYDGADKYYADSVRGRFTIARDNSKNTLFLQMSSLRPEDTAVYYCAKKGQPYCGGDCHFYYLDYWGQGTLVTVSS
# VL: B4 VL with L15V, Y32H, P80A
# B6: C1008 (antibody, V domains shown)
# VH: EVQLVESGGGLIQPGGSLRLSCAASGFTVSSNYMSWVRQAPGKGLEWVSVIYSGGSTYYADSVKGRFTISRDNSKNTLYLQMNSLRAEDTAVYYCARVVGYDFWSGYDGGYFDYWGQGTLVTVSS
# VL: QSALTQPASVSGSPGQSITISCTGTSSDVGSYNLVSWYQQHPGKAPKLMIYEVSKRPSGVSNRFSGSKSGNTASLTISGLQAEDEADYYCCSYAGSSTWVFGGGTKLTVL
# B7: C1009 (antibody, V domains shown)
# VH: EVQLVESGGGLLQPGGSLRLSCAASGFSVSSNYMTWVRQAPGKGLEWVAAIYSGDSTYYVDSVKGRFIISRDNSKNTVYLHLSSLRAEDTAVYYCARLVGYDFRSGSDGGYFDYWGHGTLVTVSS
# VL: B6 VL with V29I, S31N, E52D, A86T
# B8: C1012 (antibody, V domains shown)
# VH: QVQLVQSGAEVKKPGSSVKVSCKASGGTVNNYAINWVRQAPGQGLEWMGGIVPIFGTPNYAQKFQGRVTITADESTSTAYMELSSLRSEDTAVYYCAKVSLTLPIAAAPRFWFDSWGQGTLVTVSS
# VL: EIVMTQSPATLSVSPGERATLSCRASQSVSSHLAWYQQKPGQAPRLLIYGASTRATGIPARFSGSGSGTEFTLTISSLQSEDFAVYYCQQYHNWPPALTFGGGTKVEIK
# B9: C1013 (antibody, V domains shown)
# VH: QVQLVQSGVEVKKPGSSVKVSCKASGGTFTDYAFSWVRQAPGQGLEWMGGIVPIFATPDYAEKFRGRVTITADESTSTAYMELSTLKSEDTAVYYCARASLTLPIRAAPRFWFDAWGQGTLVTVSS
# VL: B8 VL with S28G, S31T, N93K
# B10: C1023 (antibody, V domains shown)
# VH: QVQLVQSGAEMKKPGASVKISCKASGDTFTTNYFHWVRQAPGQGLEWMGIINPSAGSTTYAQRFQGRVTMTGDSSTNTVYLELRSLRSEDTAMYFCAKGSYIPAMRSSFDPWGQGTLVTVSS
# VL: EIVLTQSPGTLSLSPGERATLSCRASQSVSHRYLAWYQQKPGQAPRLLIDGASNRATGIPDRFSGSGSGTDFTLTISRLEPEDFGVYYCQQYGSSPPFTFGQGTKLEIK
# B11: C1014 (antibody, V domains shown)
# VH: QVQLQESGPGLVRPSQTLSLTCTVSGGSIGSGAYWSWIRQHPAKGLEWIGYVYYSGSTFYNPSLETRVSISVDISKDQFSLELTSVTVADTAVYYCAREKIEVVSIEMRPHYYGIDVWGQGTTVTVSS
# VL: EIVMTQSPATLSVSPGERATLSCRASQSISSNLAWYQQKPGQPPRLLIYGASTRATGIPARFSGSGSGTEFTLTISSLQSEDIAVYYCQHYNNWPPWTFGQGTKVDIK
# B12: C906 (antibody, V domains shown)
# VH: EVQLVESGGGLIKPGRSLRLSCTASGFTFGDYAMTWFRQAPGKGLEWVGFIRSKAYGGTTGYAASVKYRFTISRDDSKSIVYLQMDSLKTEDTAVYYCTRWDGWSQHDYWGQGTLVTVSS
# VL: DIVMTQSPLSLSVTPGEPASISCRSSQSLLHSNGINYFDWYLQKPGQSPQLLIYLGSNRASGVPDRFSGSGSGTDFTLKISRVEAEDVGVYYCMQVLQIPYTFGQGTKLEI
# B13: C1016 (antibody, V domains shown)
# VH: QVQLQESGPGLVKPSGTLSLTCAVSGGPISSNHWWSWVRQPPGKGLEWIGEVYRNGNTNYHPSLKSRVTMSIDNSKNQFSLSLTSVTAADTAVYYCARGGDLAMGPEYLDFWGQGTLVTVSS
# VL: QSALTQPASVSGSPGQSITISCTGTSSDVGANNYVSWYQQHPGKAPKLMIYDVINRPSGVSDRFSGSKSGNTASLTISGLQAEDEADYYCSSFSTSSTLLFGGGTKLTVL
# B14: C1021 (antibody, V domains shown)
# VH: QVQLVQSGAELKKPGASVKVSCKASGYTFSTYYIHWVRQAPGQGLEWMGIINPEAGSTSYAQKFQGRVTMTTDTSTSTVYMELISLRSQDTAIYYCARDAVGVPAINSLEYWGQGTLVTVSS
# VL: EIVLTQSPATLSLSPGERATLSCRASQSISSYLAWYQQKPGQAPRLLIYDASNRATDISARFSGSGSGTDFTLTISSLEPEDFAVYYCQHRSNWPPSFTFGGGTKVEIK
# B15: C907 (antibody, V domains shown)
# VH: QVQLQESGPGLVKPSETLSLTCTVSGGSITSYYWTWIRQSPGKGLEWIGYIYYIGSTNYNPSLKSRLTISLATSKNQFSLRLNSVTAADTAVYYCASYYNDTSGYSYGLDVWGQGTTVTVSS
# VL: DIQMTQSPSSLSAFVGDRVTITCRAGQSISSYLHWYQQKPGKAPKLLIYATSTLQSGVPSRFSGRGSGTDFTLTISGLQPEDFATYYCQQSYSTPQTFGQGTKVEIK
# B16: C903 (antibody, V domains shown)
# VH: EVQLVESGGGLIQPGGSLRLSCAASGFIVSRNYMSWVRQAPGKGLEWVSIIYSGGSTFYADSVKGRFTISRDNSKNTVYLQMNSLRAEDTAVYYCARDYGDFYFDYWGQGTLVTVSS
# VL: EIVLTQSPGTLSLSPGERATLSCRASQSVSSSYLAWYQQKPGQAPRLLIFDVSSRATGIPDRFSGSGSGTDFTLTISRLEPEDFAVYYCQQYGSSPRTFGQGTKVEIK
# B17: C908 (antibody, V domains shown)
# VH: EVQLVQSGAEVKKPGESLKISCKASGYSFTIYWIGWVRQMPGKGLEWMGIIYPGESETRYSPSFQGQVTISADKSISTAYLQWRSLKASDTAMYYCARGGPPGGVKLELTDYWGQGTLVTVSS
# VL: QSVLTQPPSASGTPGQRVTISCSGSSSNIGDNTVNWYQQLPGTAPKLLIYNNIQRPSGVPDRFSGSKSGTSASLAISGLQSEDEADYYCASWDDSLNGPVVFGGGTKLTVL
# B18: C1020 (antibody, V domains shown)
# VH: QVQLVQSGAEVKKPGASVKISCKASGYSFSNYYIHWVRQAPGQGLEWMGIINPSGNSISYAQKFQGRVTMTGDTSTSTVYMELSSLRSEDTAVYYCARSVFPVPAAGGCDYWGQGTLVTVSS
# VL: DIQMTQSPSSLSASVGDRVTITCRASQSITTSLNWYQQKPGKAPKLLIYSASTLESGVPSRFSGSGSGTDFTLTISSLQPEDFATYYCQQTYRAPPYTFGQGTKLEIK
# B19: C1006 (antibody, V domains shown)
# VH: QVQLVQSGAEVRKPGSSVKVSCKASGGPFDQYTFSWVRQAPGQGLEWMARITPVVDLTNYAQKFQGRITIITDKSTSTAYMELSSLRSEDTAIYYCATPLNDYYASGNLGLWGQGTLVTVSS
# VL: DIQMTQSPSSLSASIGDRVTITCRASQGISYYLAWFQQKPGEAPRSLIYDASSLQSGVPSKFSGSGSGTDFTLTISSLQPEDSATYYCQQYNSYPLTFGGGTKVEIK
# B20: C1007 (antibody, V domains shown)
# VH: QVQLVQSGSEMKKPGSSVKVSCKAAGGTLNTHTFSWVRQAPGQGLEWMGRITPTVDLTNYAQKFQGRITITADTSTNTAYLELRRLRSEDTAIYYCATPLNDYYASGNLGLWGQGTLVTVSS
# VL: B19 VL with R18T, Q38R, E42K, R45K, N92S, S93T
# B21: C1019 (antibody, V domains shown)
# VH: QVQLVESGGGVVQPGTPLRLSCAASGFTFSSYAMHWVRQAPGKGLEWVAMISYDGGNKYYADSVKGRFTISRDNSKNTLFLQMNSLRGEDTAVYYCARSFSIRIGHKDNWGQGTLVTVSS
# VL: NFMLTQPHSVSESPGKTVTISCTGSSGSIANNYVQWYQQRPGSAPTPVIYEDDQRPSGVPDRFSGSIDSSSNSASLSISGLKTEDEADYYCQSYDSTNFWVFGGGTKLTVL
# B22: C1024 (antibody, V domains shown)
# VH: QVQLVESGGGVVQPGRSLRLSCAASGFTFSDYAMHWVRQAPGKGLEWVAMISYDGNSQYYADSVKGRFTISRDNSKNTLYLQMNILRPEDTAVYYCARTFSIRIGHHDYWGQGTLVTVSS
# VL: B21 VL with N31S, Q35H, P47T, Y50F, D53N, S77T, T97S, N98S
# B23: C905 (antibody, V domains shown)
# VH: QVQLQESGPGLVTPSQTLSLTCSVSGGSIHSRDFYWGWIRQHPGKGLEWIGHIYYTGNTYYNPSLKSRVTISADTSKNQFSLKLSSVTAADTAVYYCARATVVITLHWFDPWGQGTLVTVSS
# VL: NFMLTQPHSVSESPGKTVTISCTGSGGSIASNYVQWYQQRPGSAPTTVIYEDNERPSGVPDRFSGSIDSSSNSASLTISGVKTEDEADYFCQSYDVGNPVIFGGGTKLTVL
# Biological target: T1, SARS-COV-2 RBD (SARS-COV-2, UniProt P0DTC2 319-539)
# T1 construct: also called WT RBD
# Experiment: ELISA, RBD coated on plate
row,Binder,EC50
1,B1,3.09 ng/mL
2,B2,3.31 ng/mL
3,B3,1.66 ng/mL
4,B4,2.45 ng/mL
5,B5,1.49 ng/mL
6,B6,17.2 ng/mL
7,B7,1.34 ng/mL
8,B8,3.29 ng/mL
9,B9,8.92 ng/mL
10,B10,1.13 ng/mL
11,B11,2.95 ng/mL
12,B12,1.07 ng/mL
13,B13,2.16 ng/mL
14,B14,2.53 ng/mL
15,B15,3.71 ng/mL
16,B16,2.54 ng/mL
17,B17,1.27 ng/mL
18,B18,2.06 ng/mL
19,B19,2.04 ng/mL
20,B20,3.22 ng/mL
21,B21,2.8 ng/mL
22,B22,2.37 ng/mL
23,B23,3.06 ng/mL
